Source: US20230053603A1 (ADC THERAPEUTICS, published 2023)

T1: Human KAAG1 (Kidney associated antigen 1) (human, UniProt Q9UBP8 1-84)
T1 sequence: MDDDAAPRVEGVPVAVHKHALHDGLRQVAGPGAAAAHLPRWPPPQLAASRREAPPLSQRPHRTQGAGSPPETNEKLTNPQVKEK

T2: rat Dlk-1 (rat, UniProt O70534 24-306, limits assumed)
T2 sequence (looked up): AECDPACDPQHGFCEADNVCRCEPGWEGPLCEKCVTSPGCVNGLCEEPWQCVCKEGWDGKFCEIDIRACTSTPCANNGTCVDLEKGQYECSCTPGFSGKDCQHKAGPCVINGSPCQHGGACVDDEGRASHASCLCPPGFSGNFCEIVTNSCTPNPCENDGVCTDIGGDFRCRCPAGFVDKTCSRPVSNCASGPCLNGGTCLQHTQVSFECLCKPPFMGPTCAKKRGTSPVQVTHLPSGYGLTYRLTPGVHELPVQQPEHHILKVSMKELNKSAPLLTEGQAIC

B1: ConjA2 (anti-KAAG1 antibody 3A4 conjugated to drug linker 4 / PL1601) (antibody, human IgG1, kappa, V domains shown)
VH: QIQLVQSGAEVKKPGASVKVSCKASGYTFTDDYMSWVKQAPGQGLEWIGDINPYNGDTNYNQKFKGKATLTVDKSTSTAYMELSSLRSEDTAVYYCARDPGAMDYWGQGTLVTVSS
VL: DIVMTQTPLSLPVTPGEPASISCRSSQSLLHSNGNTYLEWYLQKPGQSPQLLIYTVSNRFSGVPDRFSGSGSGTDFTLKISRVEAEDVGVYYCFQGSHVPLTFGQGTKLEIKR
modifications: PBD drug linker PL1601 (4) attached through the remodelled glycan (GalNAc-N3) on Asn297; average DAR of 1.9
B2: ConjA1 (anti-DLK1 antibody HuBa-1-3d conjugated to drug linker 4) (antibody, V domains shown)
VH: QVQLVQSGAEVKKPGASVKVSCKGSGYTFTDYAMHWVRQAPGQGLEWIGVISTYYGNTNYNQKFKGKATMTVDKSTSTAYMELRSLRSDDTAVYYCARGGLREYYYAMDYWGQGTMVTVSS
VL: DIVMTQSPDSLAVSLGERATINCKSSQSLLNSSNQKNYLAWYQQKPGQPPKLLVYFASTRESGVPDRFSGSGSGTDFTLTISSLQAEDVAVYYCQQHYSTPPTFGQGTKLEIKR
modifications: PBD drug linker 4 (PL1601) attached through the remodelled glycan (GalNAc-N3) on Asn297; average DAR of 1.87
notes: also called anti-DLK1 ADC; ADC

Key:
[1] = biological target: T1, Human KAAG1 (Kidney associated antigen …); experiment: cell-based or functional assay
[2] = biological target: T2, rat Dlk-1; experiment: not described (stated in the heading of the rat toxicology study)

Row | Binder | EC50, in vitro cytotoxicity (CellTiter-Glo) on MDA-MB-231 cells [1] | EC50, in vitro cytotoxicity (CellTiter-Glo) on SN12C cells [1] | binding result [2]
1 | B1 | 0.226 µg/mL | 0.0663 µg/mL | –
2 | B2 | – | – | no binding
